± gives the standard deviation of the averaged measurements.

The chains are these.
B1: library; numbered along this chain (parent)
chain: MNIQIGELAKRTACPVVTIRFYEQEGLLPPPGRSRGNFRLYGEEHVERLQFIRHCRSLDMPLSDVRTLLSYRKRPDQDCGEVNMLLDEHIRQVESRIGALLELKHHLVELREACSGARPAQSCGILQGLSDCVCDTRGTTAHPSD

Series [1] covers variants of B1. The series can be described thus: sfGFP reporter fluorescence (15 h) (µM FITC); higher = higher leak. Particulars: library round: Round 0; ligand: none. As to the method: (§1)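 Cell-free (BL21 Star DE3 extract, PANOx-SP) biosensing: 1 µL Echo-assembled reactions with linear PbrR variant templates (5 nM) and pPbrR-sfGFP reporter, with 1 µM Pb (lead chloride), 30 µM Zn (zinc acetate) or no ligand; endpoint sfGFP fluorescence after 15 h at 30 °C, calibrated as µM FITC. Round 0 library (alanine scan, site saturation, combinatorial) of PbrR from Cupriavidus metallidurans; 2 biological replicates.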

In series [2] the parent is B1. The series can be described thus: sfGFP reporter fluorescence (15 h) (µM FITC); higher = stronger transcriptional activation. Particulars: library round: Round 0. How it is done: as §1
Variants of B1 are the subject of series [3]. In words: sfGFP reporter fluorescence (15 h) (µM FITC); higher = higher leak. Particulars: library round: Round 1; ligand: none. Summed up:
(§2)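 Readout was endpoint sfGFP fluorescence, converted to µM FITC through standard curves. Reactions were 1 μL of BL21 Star (DE3) PANOx-SP extract with pPbrR-sfGFP reporter, 30 μg/mL GamS and linear PbrR templates normalized to 5 nM, containing 1 µM lead chloride, 30 µM zinc acetate or no metal. Incubation lasted 15 hr at 30 °C, with up to three biological replicates.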

In series [4] the parent is B1. The series can be described thus: sfGFP reporter fluorescence (15 h) (µM FITC); higher = stronger transcriptional activation. Particulars: library round: Round 1. A digest of the protocol:
as §2

As for L58S, the sfGFP reporter fluorescence in series [1] was 0.05717 ± 0.00052; in series [2] (ligand: 1 µM Pb), 0.0586; in series [2] (ligand: 30 µM Zn), 0.0563 ± 0.0013.

Take L58H: the sfGFP reporter fluorescence turned out to be 0.05901 ± 0.00052 in series [1], 0.0594 ± 0.0021 in series [2] (ligand: 1 µM Pb) and 0.0656 ± 0.0036 in series [2] (ligand: 30 µM Zn).

M60L D64K G128I: the figures for the sfGFP reporter fluorescence in series [1], in series [2] (ligand: 1 µM Pb) and in series [2] (ligand: 30 µM Zn) were 2.06 ± 0.074, 3.47 ± 0.32 and 4.32 ± 0.22, respectively.

In the case of D64H, the results for the sfGFP reporter fluorescence in series [1], in series [2] (ligand: 1 µM Pb) and in series [2] (ligand: 30 µM Zn) were 0.0682 ± 0.001, 0.12 ± 0.0054 and 1.81 ± 0.088, respectively.

D64Y: the sfGFP reporter fluorescence was determined as 0.61 ± 0.017 in series [1], 1.75 ± 0.51 in series [2] (ligand: 1 µM Pb) and 3.81 ± 0.17 in series [2] (ligand: 30 µM Zn).

For the variant D64L, the sfGFP reporter fluorescence in series [1] was found to be 2.28 ± 0.17; in series [2] (ligand: 1 µM Pb), 3.29 ± 0.26; in series [2] (ligand: 30 µM Zn), 4.32 ± 0.14.

D64W: the values for the sfGFP reporter fluorescence in series [1], in series [2] (ligand: 1 µM Pb) and in series [2] (ligand: 30 µM Zn) were 0.0815 ± 0.0029, 0.167 ± 0.0052 and 1.64 ± 0.044, respectively.

C14A: the values for the sfGFP reporter fluorescence in series [1], in series [2] (ligand: 1 µM Pb) and in series [2] (ligand: 30 µM Zn) were 0.0687 ± 0.0018, 0.0726 ± 0.0015 and 0.317 ± 0.01, respectively.

For R33A G36L, the sfGFP reporter fluorescence in series [3] worked out at 0.0634 ± 0.0035; in series [4] (ligand: 1 µM Pb), 0.0567 ± 0.0051; in series [4] (ligand: 30 µM Zn), 0.0604 ± 0.00092.

As to N83S I90L R111L, the sfGFP reporter fluorescence in series [3] was found to be 0.063 ± 0.0026; in series [4] (ligand: 1 µM Pb), 0.079 ± 0.0099; in series [4] (ligand: 30 µM Zn) it was 0.205 ± 0.021.

For the variant G26A, the sfGFP reporter fluorescence in series [1] was found to be 0.06304 ± 0.00052; in series [2] (ligand: 1 µM Pb), 0.0724 ± 0.0023; in series [2] (ligand: 30 µM Zn), 0.512 ± 0.033.

For E94G, the sfGFP reporter fluorescence in series [1] turned out to be 0.0553 ± 0.0036; in series [2] (ligand: 1 µM Pb), 0.0656 ± 0.0031; in series [2] (ligand: 30 µM Zn), 0.52721 ± 0.00026.

E94Y: the sfGFP reporter fluorescence in series [1] turned out to be 0.0577 ± 0.0034; in series [2] (ligand: 1 µM Pb), 0.0553 ± 0.0047; in series [2] (ligand: 30 µM Zn), 0.153 ± 0.0047.

For the variant M60L P61D D64K, the sfGFP reporter fluorescence was determined as 0.237 ± 0.022 in series [3], 0.609 ± 0.14 in series [4] (ligand: 1 µM Pb) and 1.82 ± 0.074 in series [4] (ligand: 30 µM Zn).

As to R33T, the sfGFP reporter fluorescence amounted to 0.0634 in series [1], 0.06267 ± 0.00052 in series [2] (ligand: 1 µM Pb) and 0.06285 ± 0.00026 in series [2] (ligand: 30 µM Zn).

As to R33A, the sfGFP reporter fluorescence turned out to be 0.0614 ± 0.0023 in series [1], 0.0594 in series [2] (ligand: 1 µM Pb) and 0.0625 ± 0.00078 in series [2] (ligand: 30 µM Zn).

On to D87S, for which the figures for the sfGFP reporter fluorescence in series [3], in series [4] (ligand: 1 µM Pb) and in series [4] (ligand: 30 µM Zn) were 0.0624 ± 0.0015, 0.0699 ± 0.0015 and 0.162 ± 0.017, respectively.

For M60L K104V L107C G128I, the results for the sfGFP reporter fluorescence in series [1], in series [2] (ligand: 1 µM Pb) and in series [2] (ligand: 30 µM Zn) were 1.223 ± 0.006, 3.59 ± 0.22 and 3.12 ± 0.6, respectively.

With D131C D135A, the sfGFP reporter fluorescence is 0.0605 ± 0.0013 in series [3], 0.0742 ± 0.0019 in series [4] (ligand: 1 µM Pb) and 0.221 ± 0.02 in series [4] (ligand: 30 µM Zn).

M60F P61N D64K: the sfGFP reporter fluorescence was found to be 0.624 ± 0.057 in series [3], 1.61 ± 0.059 in series [4] (ligand: 1 µM Pb) and 1.82 ± 0.16 in series [4] (ligand: 30 µM Zn).

M60C: the sfGFP reporter fluorescence in series [1] stood at 0.06029 ± 0.00026; in series [2] (ligand: 1 µM Pb), 0.06304 ± 0.00052; in series [2] (ligand: 30 µM Zn) it was 0.06615 ± 0.00026.

For L68N, the sfGFP reporter fluorescence came to 0.0588 ± 0.0013 in series [1], 0.05992 ± 0.00026 in series [2] (ligand: 1 µM Pb) and 0.0599 ± 0.0013 in series [2] (ligand: 30 µM Zn).

Take L68R: the sfGFP reporter fluorescence in series [1] was found to be 0.06175 ± 0.00026; in series [2] (ligand: 1 µM Pb), 0.0579 ± 0.001; in series [2] (ligand: 30 µM Zn), 0.0596 ± 0.0029.

For the variant L68D, the sfGFP reporter fluorescence in series [1] came to 0.0619 ± 0.001; in series [2] (ligand: 1 µM Pb), 0.061 ± 0.0013; in series [2] (ligand: 30 µM Zn), 0.0636 ± 0.0023.

L68K: the sfGFP reporter fluorescence stood at 0.0608 ± 0.0021 in series [1], 0.0566 ± 0.0013 in series [2] (ligand: 1 µM Pb) and 0.0638 ± 0.0036 in series [2] (ligand: 30 µM Zn).

L68M: the sfGFP reporter fluorescence in series [1] was determined as 0.0902 ± 0.0021; in series [2] (ligand: 1 µM Pb) it was 0.2142 ± 0.0013; in series [2] (ligand: 30 µM Zn), 1.42 ± 0.044.

With G128W, the sfGFP reporter fluorescence in series [1] was found to be 0.07165 ± 0.00026; in series [2] (ligand: 1 µM Pb), 0.248 ± 0.028; in series [2] (ligand: 30 µM Zn), 1.39 ± 0.098.

Take P61C: the values for the sfGFP reporter fluorescence in series [1], in series [2] (ligand: 1 µM Pb) and in series [2] (ligand: 30 µM Zn) were 0.0755 ± 0.001, 0.193 ± 0.0083 and 1.78 ± 0.031, respectively.

Take P61Q: the sfGFP reporter fluorescence came out at 0.0755 ± 0.0015 in series [1], 0.148 ± 0.0065 in series [2] (ligand: 1 µM Pb) and 1.07 ± 0.024 in series [2] (ligand: 30 µM Zn).

Consider P61G, for which the sfGFP reporter fluorescence in series [1] was 0.0819 ± 0.0029; in series [2] (ligand: 1 µM Pb) it was 0.2936 ± 0.0021; in series [2] (ligand: 30 µM Zn) it was 2.2 ± 0.053.

On to P61S, for which the sfGFP reporter fluorescence is 0.0755 ± 0.00052 in series [1], 0.146 ± 0.0036 in series [2] (ligand: 1 µM Pb) and 2.15 ± 0.052 in series [2] (ligand: 30 µM Zn).

With C55G, the sfGFP reporter fluorescence in series [1] came out at 0.0568 ± 0.0015; in series [2] (ligand: 1 µM Pb), 0.057 ± 0.00078; in series [2] (ligand: 30 µM Zn) it was 0.07 ± 0.0015.

V108Y: the sfGFP reporter fluorescence came out at 0.0608 ± 0.0015 in series [1], 0.108 ± 0.0021 in series [2] (ligand: 1 µM Pb) and 1.18 ± 0.067 in series [2] (ligand: 30 µM Zn).

With N83T D135V, the sfGFP reporter fluorescence in series [3] is 0.0628 ± 0.0024; in series [4] (ligand: 1 µM Pb), 0.0727 ± 0.0031; in series [4] (ligand: 30 µM Zn) it was 0.184 ± 0.011.

D64I R111L: the figures for the sfGFP reporter fluorescence in series [3], in series [4] (ligand: 1 µM Pb) and in series [4] (ligand: 30 µM Zn) were 0.0903 ± 0.0015, 0.254 ± 0.032 and 1.39 ± 0.12, respectively.

As to M60L D64K E81A R111A, the sfGFP reporter fluorescence in series [3] worked out at 0.488 ± 0.013; in series [4] (ligand: 1 µM Pb), 1.37 ± 0.17; in series [4] (ligand: 30 µM Zn), 2.16 ± 0.59.

C134L: the sfGFP reporter fluorescence in series [1] is 0.0673 ± 0.00078; in series [2] (ligand: 1 µM Pb), 0.113 ± 0.012; in series [2] (ligand: 30 µM Zn) it was 1.3 ± 0.054.

As to C134G, the sfGFP reporter fluorescence in series [1] is 0.0651 ± 0.0029; in series [2] (ligand: 1 µM Pb), 0.0841 ± 0.0013; in series [2] (ligand: 30 µM Zn), 1.35 ± 0.059.

Consider C134H, for which the sfGFP reporter fluorescence came out at 0.0645 in series [1], 0.0913 ± 0.0042 in series [2] (ligand: 1 µM Pb) and 1.05 ± 0.012 in series [2] (ligand: 30 µM Zn).

Consider E109L, for which the values for the sfGFP reporter fluorescence in series [1], in series [2] (ligand: 1 µM Pb) and in series [2] (ligand: 30 µM Zn) were 0.0586 ± 0.001, 0.0907 ± 0.0029 and 1.12 ± 0.12, respectively.

As for P61N D64K L107C G128I, the sfGFP reporter fluorescence in series [1] amounted to 3.28 ± 0.15; in series [2] (ligand: 1 µM Pb), 4.88 ± 0.7; in series [2] (ligand: 30 µM Zn), 4.54 ± 0.044.

Consider D131A D135P P143W, for which the sfGFP reporter fluorescence in series [3] is 0.0718 ± 0.0029; in series [4] (ligand: 1 µM Pb), 0.122 ± 0.0042; in series [4] (ligand: 30 µM Zn) it was 0.497 ± 0.081.

With P15A P61N, the sfGFP reporter fluorescence was found to be 0.0831 ± 0.0029 in series [3], 0.12 ± 0.017 in series [4] (ligand: 1 µM Pb) and 0.573 ± 0.031 in series [4] (ligand: 30 µM Zn).

Regarding E109L D135R, the sfGFP reporter fluorescence in series [3] was 0.0677 ± 0.0015; in series [4] (ligand: 1 µM Pb), 0.0959 ± 0.0042; in series [4] (ligand: 30 µM Zn) it was 0.406 ± 0.061.

Values taken from the supplement of paper PMC12783771.
